From the Human Domainome abundance scans (Beltran et al. 2025)
± gives the uncertainty stated by the source.

B1: Cullin-9, residues 2234 to 2275; numbered along this chain, Q8IWT3 (parent)
chain: KRCPSCQAPIEKNEGCLHMTCAKCNHGFCWRCLKSWKPNHKD
B2: POU domain, class 4, transcription factor 3, residues 185 to 256; numbered along this chain, Q15319 (parent)
chain: RELEAFAERFKQRRIKLGVTQADVGAALANLKIPGVGSLSQSTICRFESLTLSHNNMIALKPVLQAWLEEAE

Variants of: B1
Test: abundance fitness (aPCA) (normalised: wild type 0, dead -1); higher = more abundant; growth selection in yeast, the domain comes from the species named
Conditions: Homo sapiens

Variant	abundance fitness
S35M	0.037 ± 0.16
S35P	0.446 ± 0.14
S35Y	-0.463 ± 0.23
S35L	0.078 ± 0.09
S35V	-0.132 ± 0.079
S35H	-0.373 ± 0.24
S35N	-0.092 ± 0.33
S35K	-0.155 ± 0.12
S35Q	0.068 ± 0.12
S35I	-0.438 ± 0.3
S35F	0.187 ± 0.17
S35T	0.044 ± 0.17
S35W	-0.23 ± 0.12
S35A	0.049 ± 0.083
S35D	0.003 ± 0.2
S35R	-0.356 ± 0.097
S35C	-0.195 ± 0.14
S35E	0.17 ± 0.084
K34I	-0.539 ± 0.14
K34C	-0.341 ± 0.13
K34S	-0.18 ± 0.094
K34D	-0.376 ± 0.24
K34P	-0.363 ± 0.12
K34N	-0.579 ± 0.23
K34M	-0.374 ± 0.13

Variant	abundance fitness
K34H	-0.252 ± 0.15
K34G	-0.194 ± 0.073
K34F	-0.378 ± 0.18
K34W	-0.765 ± 0.11
K34Q	-0.128 ± 0.18
K34T	-0.313 ± 0.15
K34A	-0.431 ± 0.092
K34E	0.045 ± 0.092
K34L	-0.639 ± 0.099
C32T	-0.485 ± 0.15
C32L	-0.939 ± 0.11
C32W	-0.744 ± 0.12
C32M	-0.545 ± 0.14
C32P	-0.959 ± 0.14
C32Q	-0.726 ± 0.12
C32N	-0.472 ± 0.18
C32G	-0.668 ± 0.081
C32K	-0.677 ± 0.18
C32E	-0.117 ± 0.094
C32V	-0.983 ± 0.12
C32D	-0.199 ± 0.11
C32A	-0.632 ± 0.095
C32S	-0.747 ± 0.1
C32H	-1.17 ± 0.22
C32R	-0.894 ± 0.098

Variant	abundance fitness
C32F	-0.744 ± 0.17
P38Q	-0.163 ± 0.13
P38K	-0.379 ± 0.32
P38H	-0.867 ± 0.34
P38L	-0.178 ± 0.11
P38S	-0.26 ± 0.1
P38V	-0.212 ± 0.079
P38D	-0.553 ± 0.28
P38F	0.042 ± 0.26
P38T	-0.204 ± 0.19
P38R	-0.383 ± 0.077
P38C	-0.695 ± 0.19
P38M	-0.364 ± 0.2
P38E	0.184 ± 0.11
P38A	-0.114 ± 0.092
H40Q	-0.123 ± 0.14
H40C	-0.24 ± 0.14
H40W	-0.427 ± 0.094
H40S	0.066 ± 0.11
H40Y	-0.451 ± 0.32
H40T	-0.359 ± 0.13
H40F	-0.089 ± 0.35
H40P	-0.091 ± 0.11
H40G	-0.102 ± 0.073
H40V	0.006 ± 0.086

Variant	abundance fitness
H40A	0.05 ± 0.077
H40D	0.111 ± 0.25
H40M	0.13 ± 0.1
H40K	-0.319 ± 0.15
H40E	0.182 ± 0.11
H40R	-0.283 ± 0.087
K37D	0.323 ± 0.11
K37P	-0.056 ± 0.094
K37M	-0.261 ± 0.12
K37F	-0.193 ± 0.16
K37I	-0.039 ± 0.14
K37E	0.219 ± 0.089
K37L	-0.143 ± 0.096
K37V	0.078 ± 0.087
K37Q	0.121 ± 0.1
K37G	0.125 ± 0.071
K37S	0.234 ± 0.099
K37Y	-0.059 ± 0.15
K37W	-0.168 ± 0.098
K37R	-0.156 ± 0.078
K37C	0.057 ± 0.11
K37T	0.117 ± 0.1
R31A	-0.026 ± 0.076
R31K	0.371 ± 0.11
R31P	-0.17 ± 0.12

Variant	abundance fitness
R31W	-0.025 ± 0.096
R31C	0.055 ± 0.13
R31D	0.119 ± 0.11
R31V	0.128 ± 0.087
R31I	-0.072 ± 0.17
R31E	0.162 ± 0.091
R31H	0.078 ± 0.15
R31Y	0.212 ± 0.17
R31S	-0.065 ± 0.09
R31F	-0.258 ± 0.14
R31Q	0.208 ± 0.11
R31T	0.03 ± 0.11
R31G	0.128 ± 0.081
R31N	0.17 ± 0.17
N39W	-0.176 ± 0.087
N39Q	-0.152 ± 0.11
N39K	0.045 ± 0.14
N39D	0.244 ± 0.11
N39C	-0.093 ± 0.15
N39R	-0.071 ± 0.078
N39G	0.203 ± 0.073
N39L	0.001 ± 0.078
N39A	0.017 ± 0.08
N39Y	-0.384 ± 0.29
N39F	0.269 ± 0.26

Variant	abundance fitness
N39M	-0.14 ± 0.13
N39T	0.16 ± 0.096
N39S	0.001 ± 0.12
N39H	-0.377 ± 0.14
N39V	-0.095 ± 0.09
K41P	0.318 ± 0.12
K41T	-0.277 ± 0.17
K41M	-0.373 ± 0.23
K41L	-0.295 ± 0.12
K41C	0.578 ± 0.28
K41N	-0.132 ± 0.37
K41A	0.047 ± 0.081
K41H	0.256 ± 0.21
K41E	0.281 ± 0.096
K41R	-0.128 ± 0.094
K41S	-0.038 ± 0.12
K41W	-0.646 ± 0.15
K41V	0.255 ± 0.1
D42K	-0.487 ± 0.37
D42A	-0.117 ± 0.12
D42F	-0.729 ± 0.24
D42M	-0.77 ± 0.37
D42S	-0.387 ± 0.13
D42W	-0.692 ± 0.26
D42T	-0.073 ± 0.14

Variant	abundance fitness
D42R	-0.951 ± 0.2
D42V	-0.359 ± 0.16
D42E	-0.09 ± 0.13
D42L	-0.444 ± 0.15
D42G	-0.21 ± 0.11
D42P	-0.158 ± 0.19
D42C	0.214 ± 0.12
W36F	-0.194 ± 0.19
W36S	0.118 ± 0.088
W36D	0.255 ± 0.12
W36Y	-0.17 ± 0.24
W36H	-0.015 ± 0.47
W36K	0.13 ± 0.13
W36G	-0.026 ± 0.072
W36Q	0.082 ± 0.13
W36T	0.147 ± 0.1
W36R	-0.25 ± 0.079
W36V	0.304 ± 0.074
W36C	-0.391 ± 0.18
W36L	0.205 ± 0.093
W36A	0.029 ± 0.078
W36N	-0.355 ± 0.34
W36P	0.067 ± 0.12
L33H	-0.321 ± 0.2
L33M	-0.096 ± 0.1

Variant	abundance fitness
L33I	-0.501 ± 0.19
L33Y	-0.512 ± 0.21
L33C	-0.412 ± 0.13
L33N	-0.432 ± 0.11
L33E	0.02 ± 0.098
L33D	-0.235 ± 0.13
L33S	-0.623 ± 0.11
L33R	-0.418 ± 0.079
L33F	-0.451 ± 0.15
L33Q	-0.125 ± 0.099
L33K	-0.184 ± 0.16
L33W	-0.48 ± 0.12
L33P	-0.464 ± 0.12
L33V	-0.414 ± 0.086
L33T	-0.29 ± 0.099
W30S	-0.101 ± 0.11
W30V	-0.056 ± 0.085
W30Q	-0.05 ± 0.12

Variants of: B2
Test: as above
Conditions: Homo sapiens

Variant	abundance fitness
I44V	0.08 ± 0.16
L3T	-0.109 ± 0.18
L3E	-0.395 ± 0.33
L3Q	-0.227 ± 0.13
E8N	-0.434 ± 0.35
I58K	-0.058 ± 0.12
I58M	0.153 ± 0.12
I58Q	-0.055 ± 0.072
I58D	0.215 ± 0.45
K11S	-0.208 ± 0.054
K11N	-0.88 ± 0.24
A7E	-0.893 ± 0.082
A7R	-0.695 ± 0.032
A7Y	-0.725 ± 0.18
A7V	0.039 ± 0.029
R46M	-0.184 ± 0.1
R46L	-0.184 ± 0.056
R46A	0.031 ± 0.061
P62V	-0.378 ± 0.033
P62F	-0.461 ± 0.058
A5F	-0.605 ± 0.21
A5Q	0.08 ± 0.15
A5W	-0.379 ± 0.14
K16W	-0.224 ± 0.037

Variant	abundance fitness
K16H	-0.077 ± 0.045
Q21S	-0.289 ± 0.074
Q21G	-0.429 ± 0.15
Q21L	-0.192 ± 0.1
Q21N	0.112 ± 0.18
Q21F	-0.413 ± 0.11
Q21E	0.081 ± 0.11
F47M	-0.543 ± 0.09
L39G	-0.912 ± 0.23
R14G	-0.951 ± 0.13
S49Q	-0.027 ± 0.075
S49D	0.067 ± 0.071
S49T	0.037 ± 0.06
D23K	-0.121 ± 0.19
D23G	-0.246 ± 0.49
V63R	-0.157 ± 0.049
V63H	0.019 ± 0.14
V63Q	-0.34 ± 0.094
V24E	-1.04 ± 0.23
N55Y	-0.161 ± 0.2
N55S	-0.061 ± 0.23
Q65H	-0.076 ± 0.2
Q65S	-0.127 ± 0.3
Q65R	-0.252 ± 0.16

Variant	abundance fitness
A66K	0.079 ± 0.12
A66T	-0.074 ± 0.18
P34G	-0.313 ± 0.33
S40M	-0.29 ± 0.12
S40N	-0.183 ± 0.2
S40R	-0.175 ± 0.069
A27G	-0.196 ± 0.046
A27T	0.205 ± 0.26
A27V	-0.139 ± 0.047
L64F	-0.412 ± 0.06
L64K	-0.678 ± 0.066
T43Q	-0.105 ± 0.14
T43N	-0.746 ± 0.21
C45I	0.104 ± 0.069
R1W	-0.164 ± 0.052
R1D	-0.419 ± 0.17
R1T	-0.133 ± 0.13
F10M	-0.881 ± 0.3
L17V	-0.682 ± 0.21
L17H	-0.871 ± 0.24
L17F	-0.405 ± 0.12
L17R	-0.543 ± 0.37
E2N	-0.207 ± 0.14
G25W	-0.317 ± 0.14

Variant	abundance fitness
G25D	-0.392 ± 0.25
G25K	-0.311 ± 0.37
G25N	-0.963 ± 0.49
L31N	-0.565 ± 0.3
L31D	0 ± 0.49
S42N	0.06 ± 0.4
S42M	-0.1 ± 0.099
S42T	-0.116 ± 0.079
V19H	0.007 ± 0.054
V19L	0.011 ± 0.03
V19S	-0.14 ± 0.029
T51S	0.056 ± 0.059
T51G	-0.174 ± 0.077
T51C	-0.121 ± 0.12
L68D	-0.872 ± 0.078
L68R	-0.96 ± 0.068
L68M	-0.056 ± 0.031
L68F	-0.585 ± 0.067
L68A	-0.287 ± 0.032
H54P	0.102 ± 0.28
M57L	-0.045 ± 0.42
M57V	-0.259 ± 0.19
E72T	-0.219 ± 0.043
E72N	-0.192 ± 0.057

Variant	abundance fitness
L28N	-0.623 ± 0.12
A22V	-0.298 ± 0.05
L50P	-1.02 ± 0.14
L50D	-0.139 ± 0.3
L50A	0.068 ± 0.039
G37Y	0.024 ± 0.43
I33F	-0.223 ± 0.088
R9C	-0.141 ± 0.1
R9M	0.111 ± 0.045
E4K	-0.125 ± 0.11
E4I	0.113 ± 0.077
K32F	-0.174 ± 0.037
G18Q	-0.193 ± 0.12
E69A	0.04 ± 0.048
E69D	-0.039 ± 0.078
E69H	-0.332 ± 0.15
E69L	-0.097 ± 0.027
W67T	-0.697 ± 0.11
W67C	-0.496 ± 0.22
S38V	0.065 ± 0.16
S38M	-0.006 ± 0.03
S38L	-0.031 ± 0.036
I15K	-0.052 ± 0.094
Q12R	-0.187 ± 0.068

Variant	abundance fitness
Q12K	-0.115 ± 0.062
Q12D	0.012 ± 0.17
Q12E	0.07 ± 0.31
A29R	-0.114 ± 0.076
A29N	-0.053 ± 0.095
A29S	-0.09 ± 0.086
A29I	-0.258 ± 0.25
R13E	-0.075 ± 0.066
R13N	-0.119 ± 0.13
R13I	0.05 ± 0.12
E70I	-0.348 ± 0.054
E70H	-0.014 ± 0.064
K61Y	-0.038 ± 0.058
K61P	-1.12 ± 0.18
A71E	-0.103 ± 0.05
A71M	-0.106 ± 0.026
A71Y	-0.064 ± 0.041
N30W	0.007 ± 0.19
N56L	0.105 ± 0.13
N56S	0.089 ± 0.13
N56W	0.101 ± 0.21
